These results are taken from US20250298024A1.

The target in assay [1] is polypeptide molecule 8 (human) (UniProt P05186). In words: sandwich ELISA, ALP-labeled anti-TNAP detection; calibrator C1 (17.5 ug/mL), run 1.
Assay [2] has the same target. As to the kind of experiment: sandwich ELISA, ALP-labeled anti-TNAP detection; calibrator C2 (35 ug/mL), run 3.
Assay [3] shares this target. As to the kind of experiment: sandwich ELISA, ALP-labeled anti-TNAP detection; calibrator C5 (280 ug/mL), run 1. For orientation: In an ELISA, binding on a coated surface is turned into a signal by an enzyme label.
The target is the same in assay [4]. In words: sandwich ELISA, ALP-labeled anti-TNAP detection; calibrator C4 (140 ug/mL), run 2.
Assay [5] has the same target. As to the kind of experiment: sandwich ELISA, ALP-labeled anti-TNAP detection; calibrator C1 (17.5 ug/mL), run 3.
Assay [6] shares this target. As to the kind of experiment: sandwich ELISA, ALP-labeled anti-TNAP detection; calibrator C2 (35 ug/mL), run 1.
The target is the same in assay [7]. As to the kind of experiment: sandwich ELISA, ALP-labeled anti-TNAP detection; calibrator C3 (70 ug/mL), run 1.
Assay [8] shares this target. As to the kind of experiment: sandwich ELISA, ALP-labeled anti-TNAP detection; calibrator C3 (70 ug/mL), mean of 3.
For assay [9] the target is unchanged. As to the kind of experiment: sandwich ELISA, ALP-labeled anti-TNAP detection; calibrator C4 (140 ug/mL), run 1.
For assay [10] the target is unchanged. In words: sandwich ELISA, ALP-labeled anti-TNAP detection; calibrator C2 (35 ug/mL), mean of 3.
The target is the same in assay [11]. In words: sandwich ELISA, ALP-labeled anti-TNAP detection; calibrator C3 (70 ug/mL), run 3.
The target is the same in assay [12]. As to the kind of experiment: sandwich ELISA, ALP-labeled anti-TNAP detection; calibrator C5 (280 ug/mL), run 3.
The target is the same in assay [13]. As to the kind of experiment: sandwich ELISA, ALP-labeled anti-TNAP detection; calibrator C2 (35 ug/mL), run 2.
The target is the same in assay [14]. In words: sandwich ELISA, ALP-labeled anti-TNAP detection; calibrator C4 (140 ug/mL), run 3.
Assay [15] has the same target. In words: sandwich ELISA, ALP-labeled anti-TNAP detection; calibrator C1 (17.5 ug/mL), mean of 3.
Assay [16] shares this target. As to the kind of experiment: sandwich ELISA, ALP-labeled anti-TNAP detection; calibrator C4 (140 ug/mL), mean of 3.
The target is the same in assay [17]. In words: sandwich ELISA, ALP-labeled anti-TNAP detection; calibrator C1 (17.5 ug/mL), run 2.
Assay [18] shares this target. In words: sandwich ELISA, ALP-labeled anti-TNAP detection; calibrator C5 (280 ug/mL), run 2.
The target is the same in assay [19]. As to the kind of experiment: sandwich ELISA, ALP-labeled anti-TNAP detection; calibrator C3 (70 ug/mL), run 2.
Assay [20] shares this target. As to the kind of experiment: sandwich ELISA, ALP-labeled anti-TNAP detection; calibrator C5 (280 ug/mL), mean of 3.
Assay [21] concerns the target polypeptide molecule 7 (bovine) (UniProt P19111). As to the kind of experiment: HI-1000 capture immunoassay, ALP chemiluminescence; calibrator C4 (2.562222 ug/mL), mean of 3.
Sequence of UniProt P19111 (P19111 other isoform, or with tags, fused parts or gaps limits assumed): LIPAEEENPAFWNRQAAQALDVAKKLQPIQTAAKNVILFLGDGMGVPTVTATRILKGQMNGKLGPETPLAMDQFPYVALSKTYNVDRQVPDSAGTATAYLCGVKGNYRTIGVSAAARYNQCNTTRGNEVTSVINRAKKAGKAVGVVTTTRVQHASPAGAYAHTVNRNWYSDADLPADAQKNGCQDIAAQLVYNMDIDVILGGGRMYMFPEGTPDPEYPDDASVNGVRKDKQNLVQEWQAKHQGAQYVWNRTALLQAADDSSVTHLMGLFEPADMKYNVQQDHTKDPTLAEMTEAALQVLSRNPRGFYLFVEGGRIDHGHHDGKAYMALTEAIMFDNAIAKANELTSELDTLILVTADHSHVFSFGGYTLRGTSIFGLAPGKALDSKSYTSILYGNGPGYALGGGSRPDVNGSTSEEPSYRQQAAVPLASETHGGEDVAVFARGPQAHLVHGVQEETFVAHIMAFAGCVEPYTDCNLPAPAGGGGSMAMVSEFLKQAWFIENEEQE
For assay [22] the target is unchanged. In words: HI-1000 capture immunoassay, ALP chemiluminescence; calibrator C1 (0.0177932 ug/mL), run 3.
Assay [23] has the same target. In words: HI-1000 capture immunoassay, ALP chemiluminescence; calibrator C3 (0.2846914 ug/mL), run 3.
The target is the same in assay [24]. In words: HI-1000 capture immunoassay, ALP chemiluminescence; calibrator C2 (0.0711728 ug/mL), run 1.
Assay [25] has the same target. As to the kind of experiment: HI-1000 capture immunoassay, ALP chemiluminescence; calibrator C5 (7.686667 ug/mL), run 1.
Assay [26] has the same target. As to the kind of experiment: HI-1000 capture immunoassay, ALP chemiluminescence; calibrator C2 (0.0711728 ug/mL), mean of 3.
Assay [27] shares this target. As to the kind of experiment: HI-1000 capture immunoassay, ALP chemiluminescence; calibrator C1 (0.0177932 ug/mL), run 1.
For assay [28] the target is unchanged. In words: HI-1000 capture immunoassay, ALP chemiluminescence; calibrator C3 (0.2846914 ug/mL), run 2.
Assay [29] has the same target. As to the kind of experiment: HI-1000 capture immunoassay, ALP chemiluminescence; calibrator C5 (7.686667 ug/mL), mean of 3.
For assay [30] the target is unchanged. In words: HI-1000 capture immunoassay, ALP chemiluminescence; calibrator C5 (7.686667 ug/mL), run 2.
For assay [31] the target is unchanged. As to the kind of experiment: HI-1000 capture immunoassay, ALP chemiluminescence; calibrator C2 (0.0711728 ug/mL), run 2.
The target is the same in assay [32]. As to the kind of experiment: HI-1000 capture immunoassay, ALP chemiluminescence; calibrator C5 (7.686667 ug/mL), run 3.
Assay [33] shares this target. In words: HI-1000 capture immunoassay, ALP chemiluminescence; calibrator C4 (2.562222 ug/mL), run 2.
For assay [34] the target is unchanged. In words: HI-1000 capture immunoassay, ALP chemiluminescence; calibrator C4 (2.562222 ug/mL), run 3.
Assay [35] shares this target. In words: HI-1000 capture immunoassay, ALP chemiluminescence; calibrator C2 (0.0711728 ug/mL), run 3.
Assay [36] shares this target. As to the kind of experiment: HI-1000 capture immunoassay, ALP chemiluminescence; calibrator C4 (2.562222 ug/mL), run 1.
Assay [37] shares this target. In words: HI-1000 capture immunoassay, ALP chemiluminescence; calibrator C3 (0.2846914 ug/mL), run 1.
Assay [38] has the same target. As to the kind of experiment: HI-1000 capture immunoassay, ALP chemiluminescence; calibrator C1 (0.0177932 ug/mL), run 2.
For assay [39] the target is unchanged. In words: HI-1000 capture immunoassay, ALP chemiluminescence; calibrator C1 (0.0177932 ug/mL), mean of 3.
Assay [40] has the same target. As to the kind of experiment: HI-1000 capture immunoassay, ALP chemiluminescence; calibrator C3 (0.2846914 ug/mL), mean of 3.

Sequence of UniProt P05186 (P05186 other isoform, or with tags, fused parts or gaps limits assumed): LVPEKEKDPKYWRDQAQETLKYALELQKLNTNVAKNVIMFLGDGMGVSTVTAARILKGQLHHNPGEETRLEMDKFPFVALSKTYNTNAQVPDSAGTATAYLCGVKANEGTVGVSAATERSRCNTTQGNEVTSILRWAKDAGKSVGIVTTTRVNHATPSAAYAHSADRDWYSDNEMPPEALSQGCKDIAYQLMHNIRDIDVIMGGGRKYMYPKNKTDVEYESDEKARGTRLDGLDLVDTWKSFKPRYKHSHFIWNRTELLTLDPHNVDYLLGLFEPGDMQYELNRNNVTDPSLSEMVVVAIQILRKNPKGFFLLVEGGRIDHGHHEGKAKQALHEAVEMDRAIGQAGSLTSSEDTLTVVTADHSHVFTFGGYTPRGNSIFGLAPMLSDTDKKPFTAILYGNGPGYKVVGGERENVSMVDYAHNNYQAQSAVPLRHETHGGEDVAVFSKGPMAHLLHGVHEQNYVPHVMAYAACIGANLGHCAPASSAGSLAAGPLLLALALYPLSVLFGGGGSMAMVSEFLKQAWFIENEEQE

In the case of “anti-Annexin A1 antibody (Santacruz, sc-12740)”, the relative emission intensity (RLU) came to 16500 RLU in [1]; 25000 RLU in assay [2]; 89000 RLU in [3]; 51900 RLU in assay [4]; 17000 RLU in assay [5]; 21600 RLU in [6]. In addition, the relative emission intensity (RLU) is 31900 RLU in [7]; 50900 RLU in assay [9]; 32100 RLU in [11]; 87800 RLU in assay [12]; 21700 RLU in [13]; 50900 RLU in [14]. Moreover, the values for the relative emission intensity (RLU) in [17], in assay [18] and in [19] were 16400 RLU, 86100 RLU and 33200 RLU, respectively. Further, the relative emission intensity (RLU), AV in [8] stood at 32400 RLU; in assay [10], 22800 RLU; in assay [15], 16700 RLU; in [16] it was 51200 RLU; in assay [20], 87600 RLU.

On to “biotin-labeled anti-Annexin A1 antibody (Clone: EH17a)”, for which the emission intensity (count), AV was determined as 266000 count in assay [21]; 13000 count in assay [26]; 450000 count in assay [29]; 3700 count in assay [39]; 46600 count in [40]. Further, the emission intensity (count) was 3650 count in assay [22]; 45800 count in assay [23]; 13000 count in [24]; 439000 count in assay [25]; 3800 count in [27]; 46800 count in assay [28]. The emission intensity (count) in assay [30] is 460000 count; in assay [31], 13100 count; in assay [32], 452000 count; in assay [33] it was 260000 count; in assay [34], 271000 count; in assay [35], 13000 count. The values for the emission intensity (count) in [36], in assay [37] and in assay [38] were 266000 count, 47000 count and 3650 count, respectively.
